Measured values: IntAct's records for PubMed 29039417

B1: BBSome complex member BBS2 (Homo sapiens), Q9BXC9 (parent)
chain: MLLPVFTLKLRHKISPRMVAIGRYDGTHPCLAAATQTGKVFIHNPHTRNQHVSASRVFQSPLESDVSLLSINQAVSCLTAGVLNPELGYDALLVGTQTNLLAYDVYNNSDLFYREVADGANAIVLGTLGDISSPLAIIGGNCALQGFNHEGSDLFWTVTGDNVNSLALCDFDGDGKKELLVGSEDFDIRVFKEDEIVAEMTETEIVTSLCPMYGSRFGYALSNGTVGVYDKTSRYWRIKSKNHAMSIHAFDLNSDGVNELITGWSNGKVDARSDRTGEVIFKDNFSSAIAGVVEGDYRMDGHIQLICCSVDGEIRGYLPGTAEMRGNLMDTSAEQDLIRELSQKKQNLLLELRNYEENAKAELASPLNEADGHRGIIPANTRLHTTLSVSLGNETQTAHTELRISTSNDTIIRAVLIFAEGIFTGESHVVHPSIHNLSSSICIPIVPPKDVPVDLHLKAFVGYRSSTQFHVFESTRQLPRFSMYALTSLDPASEPISYVNFTIAERAQRVVVWLGQNFLLPEDTHIQNAPFQVCFTSLRNGGHLHIKIKLSGEITINTDDIDLAGDIIQSMASFFAIEDLQVEADFPVYFEELRKVLVKVDEYHSVHQKLSADMADHSNLIRSLLVGAEDARLMRDMKTMKSRYMELYDLNRDLLNGYKIRCNNHTELLGNLKAVNQAIQRAGRLRVGKPKNQVITACRDAIRSNNINTLFKIMRVGTASS
partner: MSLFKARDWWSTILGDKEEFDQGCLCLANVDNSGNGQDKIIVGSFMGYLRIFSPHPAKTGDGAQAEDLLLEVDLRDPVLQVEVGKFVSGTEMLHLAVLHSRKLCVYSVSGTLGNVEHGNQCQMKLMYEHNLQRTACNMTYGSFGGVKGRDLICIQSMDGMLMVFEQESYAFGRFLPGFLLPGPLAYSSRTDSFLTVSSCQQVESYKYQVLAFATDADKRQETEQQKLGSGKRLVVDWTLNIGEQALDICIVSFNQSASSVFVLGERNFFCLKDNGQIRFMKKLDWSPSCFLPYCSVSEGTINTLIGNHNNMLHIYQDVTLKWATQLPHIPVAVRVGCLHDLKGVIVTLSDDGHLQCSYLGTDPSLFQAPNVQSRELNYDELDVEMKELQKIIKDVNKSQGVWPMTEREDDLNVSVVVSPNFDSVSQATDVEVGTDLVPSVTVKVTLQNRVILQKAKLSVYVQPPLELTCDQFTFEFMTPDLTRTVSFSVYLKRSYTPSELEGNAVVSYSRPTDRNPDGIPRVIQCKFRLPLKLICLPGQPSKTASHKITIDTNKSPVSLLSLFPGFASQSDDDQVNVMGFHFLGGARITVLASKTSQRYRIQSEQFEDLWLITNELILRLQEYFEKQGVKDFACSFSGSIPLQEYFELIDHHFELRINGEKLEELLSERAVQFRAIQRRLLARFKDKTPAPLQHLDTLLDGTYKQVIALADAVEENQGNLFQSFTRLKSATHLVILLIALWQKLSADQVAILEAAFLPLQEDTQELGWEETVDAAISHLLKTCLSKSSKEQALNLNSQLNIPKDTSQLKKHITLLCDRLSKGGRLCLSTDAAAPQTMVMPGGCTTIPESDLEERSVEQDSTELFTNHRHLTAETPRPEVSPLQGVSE

Variants of: B1
Conditions: with pthb1_human BBS9, Q3SYG4

Variant	effect of a mutation on the interaction
D585K	with no effect
D585E	with no effect
D585A	with no effect
K599A	with no effect
K599E	with no effect
V606A	with no effect
V606K	with no effect
V606E	with no effect
K609E	with no effect
K609A	with no effect
L597A	with no effect
L597E	with no effect
L597K	with no effect
Y603A	with no effect
Y603E	with no effect
Y603K	with no effect
H607K	with no effect
H607A	with no effect
H607E	with no effect
F590A	with no effect
F590E	with no effect
F590K	with no effect
S605A	with no effect
S605K	with no effect
S605E	with no effect
L593E	with no effect
L593A	with no effect

Variant	effect of a mutation on the interaction
L593K	with no effect
R594E	with no effect
R594K	with no effect
R594A	with no effect
P587E	with no effect
P587A	with no effect
P587K	with no effect
V598K	with no effect
V598E	with no effect
V598A	with no effect
D601A	with no effect
D601E	with no effect
D601K	with no effect
L610E	with no effect
L610K	with no effect
L610A	with no effect
E591A	with no effect
E591K	with no effect
F586K	with no effect
F586E	with no effect
F586A	with no effect
V600E	with no effect
V600A	with no effect
V600K	with no effect
S611E	with no effect
S611K	with no effect
S611A	with no effect

Variant	effect of a mutation on the interaction
H604K	with no effect
H604E	with no effect
H604A	with no effect
A584E	with no effect
A584K	with no effect
E583K	with no effect
E583A	with no effect
E592A	with no effect
E592K	with no effect
Y589K	with no effect
Y589E	with no effect
Y589A	with no effect
E602A	with no effect
E602K	with no effect
K595A	with no effect
K595E	with no effect
V596A	with no effect
V596K	with no effect
V596E	with no effect
Q608A	with no effect
Q608E	with no effect
Q608K	with no effect
V588K	with no effect
V588E	with no effect
V588A	with no effect
V582K	with no effect

Second part, the variant after the results:

effect of a mutation on the interaction	Variant
with no effect	K638E
with no effect	K638A
with no effect	R632A
with no effect	R632E
with no effect	R632K
with no effect	A615K
with no effect	A615E
with no effect	A631E
with no effect	A631K
with no effect	T639E
with no effect	T639K
with no effect	T639A
with no effect	M645K
with no effect	M645E
with no effect	M645A
with no effect	L647E
with no effect	L647A
with no effect	L647K
with no effect	V626K
with no effect	V626A
with no effect	V626E
with no effect	S642K

effect of a mutation on the interaction	Variant
with no effect	S642A
with no effect	S642E
with no effect	I621K
with no effect	I621A
with no effect	I621E
with no effect	A628E
with no effect	A628K
with no effect	E646A
with no effect	E646K
with no effect	R622E
with no effect	R622K
with no effect	R622A
with no effect	Y644K
with no effect	Y644A
with no effect	Y644E
with no effect	L625A
with no effect	L625K
with no effect	L625E
with no effect	L620A
with no effect	L620K
with no effect	L620E
with no effect	N619E

effect of a mutation on the interaction	Variant
with no effect	N619K
with no effect	N619A
with no effect	A612E
with no effect	A612K
with no effect	G627K
with no effect	G627A
with no effect	G627E
with no effect	R643A
with no effect	R643K
with no effect	R643E
with no effect	M640A
with no effect	M640K
with no effect	M640E
with no effect	M634E
with no effect	M634K
with no effect	M634A
with no effect	D616K
with no effect	D616A
with no effect	D616E
with no effect	D636A
disrupting interaction strength	D636G
with no effect	D636E

effect of a mutation on the interaction	Variant
with no effect	D636K
with no effect	R635E
with no effect	R635A
with no effect	R635K
with no effect	L624E
with no effect	L624A
with no effect	L624K
with no effect	D649E
with no effect	D649A
with no effect	D649K
with no effect	Y648A
with no effect	Y648E
with no effect	Y648K
with no effect	S623E
with no effect	S623K
with no effect	S623A
with no effect	L633K
with no effect	L633A
with no effect	L633E
with no effect	S618K
with no effect	S618E
with no effect	S618A

effect of a mutation on the interaction	Variant
with no effect	K641A
with no effect	K641E
with no effect	M637A
with no effect	M637K
with no effect	M637E
with no effect	D613K
with no effect	D613A
with no effect	D613E
with no effect	M614E
with no effect	M614A
with no effect	M614K
with no effect	D630E
with no effect	D630K
with no effect	D630A
with no effect	E629A
with no effect	E629K
with no effect	H617K
with no effect	H617A
with no effect	H617E
